In paper PMC10765524, “Cryo-EM structures of PP2A:B55–FAM122A and PP2A:B55–ARPP19” (Nature, 2023):

B4: tpS62tpS104ARPP19 (ARPP19 thiophosphorylated by MASTL on Ser62 and Ser104) (natural protein, UniProt P56211 1-112, looked up)
chain: MSAEVPEAASAEEQKEMEDKVTSPEKAEEAKLKARYPHLGQKPGGSDFLRKRLQKGQKYFDSGDYNMAKAKMKNKQLPTAAPDKTEVTGDHIPTPQDLPQRKPSLVASKLAG
modifications: thiophosphoserine at 62 and 104
B6: B55 (subunit of the PP2A:B55 holoenzyme) (natural protein, UniProt P63151 1-447, looked up)
chain: MAGAGGGNDIQWCFSQVKGAVDDDVAEADIISTVEFNHSGELLATGDKGGRVVIFQQEQENKIQSHSRGEYNVYSTFQSHEPEFDYLKSLEIEEKINKIRWLPQKNAAQFLLSTNDKTIKLWKISERDKRPEGYNLKEEDGRYRDPTTVTTLRVPVFRPMDLMVEASPRRIFANAHTYHINSISINSDYETYLSADDLRINLWHLEITDRSFNIVDIKPANMEELTEVITAAEFHPNSCNTFVYSSSKGTIRLCDMRASALCDRHSKLFEEPEDPSNRSFFSEIISSISDVKFSHSGRYMMTRDYLSVKIWDLNMENRPVETYQVHEYLRSKLCSLYENDCIFDKFECCWNGSDSVVMTGSYNNFFRMFDRNTKRDITLEASRENNKPRTVLKPRKVCASGKRKKDEISVDSLDFNKKILHTAWHPKENIIAVATTNNLYIFQDKVN
notes: B55 regulatory subunit, printed as full-length B55 1–477; The B55 chain of m1, written alone for the contacts seen in the cryo-EM structures; also called B55WT; source: Expi293F, purified as part of PP2A:B55; not shown: GFP, N-terminal, cleaved

Assays:
[1] = molecular target: T1, ARPP19(S10C) labelled with Alexa Fluor 488 (ARPP19-tracer) (UniProt P56211 1-112, S10C, Alexa Fluor 488 C5 Maleimide label); assay: fluorescence polarisation; PP2A:B55 (or B55LL) serially diluted into 0.1 nM Alexa Fluor 488 tracer (FAM122AID-tracer or ARPP19-tracer); 10 mM HEPES pH 7.0, 150 mM NaCl, 0.5 mM TCEP, 0.01% Triton X-100, 0.1 mg/ml BSA; 30 min at room temperature; conditions: both partners purified
T1 construct: ARPP19, S10C; source: E. coli BL21 (DE3), purified; labelled, recovered by analytical SEC; not shown: His6, N-terminal, cleaved; MBP, N-terminal, cleaved
T1 sequence (looked up): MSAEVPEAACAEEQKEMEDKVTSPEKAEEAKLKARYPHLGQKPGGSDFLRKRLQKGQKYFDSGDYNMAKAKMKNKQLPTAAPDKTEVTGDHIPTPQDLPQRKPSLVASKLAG

[2] = molecular target: B4; assay: NMR titration; 2D 1H,15N HSQC of 15N-labelled FAM122A or ARPP19 (2–6 μM) with an excess of unlabelled PP2A:B55 or B55LL; peak intensity loss; 283 K; NMR buffer pH 6.3, 150 mM NaCl; conditions: both partners purified
[3] = molecular target: T2, cAMP regulated phosphoprotein 19 (ARPP19), unphosphorylated (UniProt P56211 1-112); assay: as above; conditions: both partners purified
T2 construct: 15N-labelled in the NMR experiments; source: E. coli BL21 (DE3), purified (HisTrap, TEV cleavage, Ni-NTA, heat, SEC); not shown: His6, N-terminal, cleaved; MBP, N-terminal, cleaved
T2 sequence (looked up): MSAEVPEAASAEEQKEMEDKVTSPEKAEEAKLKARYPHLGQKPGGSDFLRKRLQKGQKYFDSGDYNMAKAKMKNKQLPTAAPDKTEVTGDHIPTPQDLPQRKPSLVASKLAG

[4] = molecular target: PP2A:B55 holoenzyme (PP2Aa, B55, PP2Ac) (UniProt P30153 9-589; P63151 1-447; P67775 1-309, C-terminal residue fully methylated (mLeu309)); assay: cell-based or functional assay
[5] = molecular target: B6; assay: cryo-EM structure; purified PP2A:B55 incubated with FAM122AID or tpARPP19 at a 1.5 molar ratio; CHAPSO added before vitrification; conditions: both partners purified
[6] = molecular target: T3, PP2Aa_(9–589) (scaffolding subunit of the PP2A:B55 holoenzyme) (UniProt P30153 9-589); assay: as above; conditions: both partners purified
T3 construct: PP2Aa (PP2A scaffolding A subunit), residues 9-589; The PP2Aa chain of m1, written alone for the contacts seen in the cryo-EM structures; source: E. coli BL21 (DE3), purified (HisTrap, TEV cleavage, Ni-NTA, QTrap, SEC); not shown: His6, N-terminal, cleaved; MBP, N-terminal, cleaved

YFP–ARPP19 R52A = molecular target: T4, YFP–ARPP19 R52A (UniProt P56211 1-112, R52A); assay: co-IP; YFP–ARPP19 variants transiently transfected into HeLa cells, precipitated with GFP-Trap beads at 4 °C in 50 mM Tris-HCl pH 7.5, 50 mM NaCl, 1 mM EDTA, 1 mM DTT, 0.1% NP40; western blot for B55α and PP2Ac; conditions: partners not purified
T4 construct: ARPP19; source: HeLa, transiently transfected, in lysate
T4 sequence (looked up): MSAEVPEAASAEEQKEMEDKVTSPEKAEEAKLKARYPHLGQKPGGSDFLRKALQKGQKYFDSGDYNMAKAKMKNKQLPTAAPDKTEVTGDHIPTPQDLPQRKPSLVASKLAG

YFP–ARPP19 F48A = molecular target: T5, YFP–ARPP19 F48A (UniProt P56211 1-112, F48A); assay: as above; conditions: partners not purified
T5 construct: ARPP19; source: HeLa, transiently transfected, in lysate
T5 sequence (looked up): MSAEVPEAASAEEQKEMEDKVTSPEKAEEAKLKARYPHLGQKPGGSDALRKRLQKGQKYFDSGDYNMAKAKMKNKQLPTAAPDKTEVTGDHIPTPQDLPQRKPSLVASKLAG

YFP–ARPP19 L49A = molecular target: T6, YFP–ARPP19 L49A (UniProt P56211 1-112, L49A); assay: as above; conditions: partners not purified
T6 construct: ARPP19; source: HeLa, transiently transfected, in lysate
T6 sequence (looked up): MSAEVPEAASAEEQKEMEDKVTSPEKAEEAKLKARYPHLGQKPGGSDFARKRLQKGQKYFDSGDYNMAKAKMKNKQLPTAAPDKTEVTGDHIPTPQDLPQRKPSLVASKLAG

YFP–ARPP19 R50A = molecular target: T7, YFP–ARPP19 R50A (UniProt P56211 1-112, R50A); assay: as above; conditions: partners not purified
T7 construct: ARPP19; source: HeLa, transiently transfected, in lysate
T7 sequence (looked up): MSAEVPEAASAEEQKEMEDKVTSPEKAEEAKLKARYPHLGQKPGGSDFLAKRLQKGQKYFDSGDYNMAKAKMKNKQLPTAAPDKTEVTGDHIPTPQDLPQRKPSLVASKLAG

YFP–ARPP19 K55A = molecular target: T8, YFP–ARPP19 K55A (UniProt P56211 1-112, K55A); assay: as above; conditions: partners not purified
T8 construct: ARPP19; source: HeLa, transiently transfected, in lysate
T8 sequence (looked up): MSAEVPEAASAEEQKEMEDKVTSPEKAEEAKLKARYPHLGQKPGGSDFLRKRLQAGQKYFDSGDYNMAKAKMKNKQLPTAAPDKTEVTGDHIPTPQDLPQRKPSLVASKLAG

YFP–ARPP19 L53A = molecular target: T9, YFP–ARPP19 L53A (UniProt P56211 1-112, L53A); assay: as above; conditions: partners not purified
T9 construct: ARPP19; source: HeLa, transiently transfected, in lysate
T9 sequence (looked up): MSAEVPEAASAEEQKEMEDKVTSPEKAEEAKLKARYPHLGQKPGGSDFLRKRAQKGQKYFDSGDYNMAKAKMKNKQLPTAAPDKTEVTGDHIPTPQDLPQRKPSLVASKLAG

Sequence of PP2A:B55 holoenzyme (PP2Aa, B55, PP2Ac) (P30153 9-589, chain 1 of 2): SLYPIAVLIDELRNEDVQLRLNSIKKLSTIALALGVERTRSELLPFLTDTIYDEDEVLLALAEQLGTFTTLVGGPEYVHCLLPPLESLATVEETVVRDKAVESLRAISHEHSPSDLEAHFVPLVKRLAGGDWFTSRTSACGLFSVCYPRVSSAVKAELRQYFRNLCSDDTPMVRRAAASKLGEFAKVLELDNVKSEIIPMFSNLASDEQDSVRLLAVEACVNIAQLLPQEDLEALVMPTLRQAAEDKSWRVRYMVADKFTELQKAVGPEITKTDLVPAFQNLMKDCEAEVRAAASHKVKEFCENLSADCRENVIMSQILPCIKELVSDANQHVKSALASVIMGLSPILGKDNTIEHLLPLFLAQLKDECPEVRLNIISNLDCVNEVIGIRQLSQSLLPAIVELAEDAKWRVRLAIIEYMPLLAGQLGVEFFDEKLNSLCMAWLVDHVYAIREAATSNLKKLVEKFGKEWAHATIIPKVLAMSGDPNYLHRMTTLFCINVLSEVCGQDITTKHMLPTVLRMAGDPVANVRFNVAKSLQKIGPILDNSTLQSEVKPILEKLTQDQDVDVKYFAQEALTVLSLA
Sequence of PP2A:B55 holoenzyme (PP2Aa, B55, PP2Ac) (P67775 whole entry, chain 3 of 2): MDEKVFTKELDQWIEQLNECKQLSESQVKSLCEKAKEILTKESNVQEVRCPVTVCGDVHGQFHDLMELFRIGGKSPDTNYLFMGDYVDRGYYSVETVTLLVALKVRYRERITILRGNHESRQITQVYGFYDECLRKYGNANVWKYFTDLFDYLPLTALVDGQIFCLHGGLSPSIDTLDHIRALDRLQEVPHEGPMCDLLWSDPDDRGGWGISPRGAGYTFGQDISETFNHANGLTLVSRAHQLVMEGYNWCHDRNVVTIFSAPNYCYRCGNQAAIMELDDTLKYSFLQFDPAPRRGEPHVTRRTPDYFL
T3 sequence (P30153 9-589): as the sequence (P30153 9-589, chain 1 of 2) above

B1: B55 loopless (B55LL) (domain or fragment)
chain: MAGAGGGNDIQWCFSQVKGAVDDDVAEADIISTVEFNHSGELLATGDKGGRVVIFQQEQENKIQSHSRGEYNVYSTFQSHEPEFDYLKSLEIEEKINKIRWLPQKNAAQFLLSTNDKTIKLWKISNGEASPRRIFANAHTYHINSISINSDYETYLSADDLRINLWHLEITDRSFNIVDIKPANMEELTEVITAAEFHPNSCNTFVYSSSKGTIRLCDMRASALCDRHSKLFEEPEDPSNRSFFSEIISSISDVKFSHSGRYMMTRDYLSVKIWDLNMENRPVETYQVHEYLRSKLCSLYENDCIFDKFECCWNGSDSVVMTGSYNNFFRMFDRNTKRDITLEASRENNKPRTVLKPRKVCASGKRKKDEISVDSLDFNKKILHTAWHPKENIIAVATTNNLYIFQDKVN
notes: linker that replaces B55 residues 126–164; source: Expi293F, purified (GFP-nanobody beads, TEV on-column cleavage, QTrap, SEC); not shown: GFP, N-terminal, cleaved
- binding result [1]: binds
- binding result [2]: binds
- binding result [3]: binds

B2: FAM122AID I88A/K89A/S120C (domain or fragment, UniProt Q96E09 29-120, looked up)
chain: GGGLRRSNSAPLIHGLSDTSPVFQAEAPSARRNSTTFPSRHGLLLPASPVRMHSSRLHQAAQEEGMDLINRETVHEREVQTAMQISHSWEEC
modifications: Alexa Fluor 488 C5 Maleimide label (fluorescence polarization assay)
- IC50 of PP2A:B55 inhibition (DiFMUP), fold increase against wild type [4]: 48 fold

B3: FAM122AID R84A/L85A/S120C (domain or fragment, UniProt Q96E09 29-120, looked up)
chain: GGGLRRSNSAPLIHGLSDTSPVFQAEAPSARRNSTTFPSRHGLLLPASPVRMHSSAAHQIKQEEGMDLINRETVHEREVQTAMQISHSWEEC
modifications: Alexa Fluor 488 C5 Maleimide label (fluorescence polarization assay)
- IC50 of PP2A:B55 inhibition (DiFMUP), fold increase against wild type [4]: 38 fold

Binder: B4
- potency of PP2A:B55 inhibition (DiFMUP) against that of FAM122A [4]: ~250 fold

B5: tpS62ARPP19_(S104A) (singly thiophosphorylated ARPP19) (natural protein, UniProt P56211 1-112, looked up)
chain: MSAEVPEAASAEEQKEMEDKVTSPEKAEEAKLKARYPHLGQKPGGSDFLRKRLQKGQKYFDSGDYNMAKAKMKNKQLPTAAPDKTEVTGDHIPTPQDLPQRKPALVASKLAG
modifications: thiophosphoserine at 62
notes: also called tpARPP19; S62 tpARPP19_(S104A); source: E. coli BL21 (DE3), purified; thiophosphorylated with MASTL kinase and ATP-γ-S; not shown: His6, N-terminal, cleaved; MBP, N-terminal, cleaved
- binding result [5]: binds

Binder: B6
- binding result [6]: binds

B7: B55, endogenous in HeLa cells (natural protein, human (endogenous in HeLa), UniProt P63151 1-447, looked up)
chain: MAGAGGGNDIQWCFSQVKGAVDDDVAEADIISTVEFNHSGELLATGDKGGRVVIFQQEQENKIQSHSRGEYNVYSTFQSHEPEFDYLKSLEIEEKINKIRWLPQKNAAQFLLSTNDKTIKLWKISERDKRPEGYNLKEEDGRYRDPTTVTTLRVPVFRPMDLMVEASPRRIFANAHTYHINSISINSDYETYLSADDLRINLWHLEITDRSFNIVDIKPANMEELTEVITAAEFHPNSCNTFVYSSSKGTIRLCDMRASALCDRHSKLFEEPEDPSNRSFFSEIISSISDVKFSHSGRYMMTRDYLSVKIWDLNMENRPVETYQVHEYLRSKLCSLYENDCIFDKFECCWNGSDSVVMTGSYNNFFRMFDRNTKRDITLEASRENNKPRTVLKPRKVCASGKRKKDEISVDSLDFNKKILHTAWHPKENIIAVATTNNLYIFQDKVN
notes: B55 detected with an antibody to B55α; also called B55α; source: endogenous, HeLa lysate
- binding, percent of wild type (YFP–ARPP19 R52A): < 25%
- binding, percent of wild type (YFP–ARPP19 F48A): ~50%
- binding, percent of wild type (YFP–ARPP19 L49A): ~75%
- binding, percent of wild type (YFP–ARPP19 R50A): ~50%
- binding, percent of wild type (YFP–ARPP19 K55A): ~75%
- binding, percent of wild type (YFP–ARPP19 L53A): < 25%
